Assay results as given in article PMC4682053, “Mechanisms of assembly and genome packaging in an RNA virus revealed by high-resolution cryo-EM” (Nature Communications, 2015).

Molecular target: the molecule itself
Assay: cryo-EM structure; CPMV eVLP purified from N. benthamiana leaves, ~4.2 mg/ml on the grid; single particles, icosahedral symmetry imposed; 3.04 Å; atomic model built de novo

B1: Cowpea mosaic virus Small (S) coat protein with its C-terminal extension, in the empty virus-like particle (eVLP) (natural protein)
chain: GPVCAEASDVYSPCMIASTPPAPFSDVTAVTFDLINGKITPVGDDNWNTHIYNPPIMNVLRTAAWKSGTIHVQLNVRGAGVKRADWDGQVFVYLRQSMNPESYDARTFVISQPGSAMLNFSFDIIGPNSGFEFAESPWANQTTWYLECVATNPRQIQQFEVNMRFDPNFRVAGNILMPPFPLSTETPPLLKFRFRDIERSKRSVMVGHTATAA
notes: Small (S) coat protein of cowpea mosaic virus, cut from the RNA-2-encoded precursor VP60 by the 24K proteinase; C-terminal 24 amino acids (190-213) kept; modelled up to Arg202, without 184-189; numbers count on: the S subunit; the particles imaged kept it; also called S subunit; small coat protein; source: N. benthamiana, agroinfiltrated with pEAQ-HT-VP60 and pEAQ-HT-24K or pEAQexpress-VP60-24K; …
stoichiometry N: 5
